Laboratory results reported in PMC8765631.

Key:
[1] = target: RhsA_(ΔTMD) (RhsA lacking its N-terminal prePAAR motif and TMD, residues 74-1486) (Pseudomonas protegens Pf-5); experiment: cryo-EM structure; purified RhsA_(ΔTMD) at 4 mg/ml in 20 mM Tris-HCl pH 8.0, 150 mM NaCl; single particle analysis with C2 symmetry, 3.3 Å
[2] = target: VgrG1 from Pseudomonas protegens (Pseudomonas protegens Pf-5); experiment: cryo-EM structure

RhsA_(ΔTMD) (RhsA lacking its N-terminal prePAAR motif and TMD, residues 74-1486) (domain or fragment)
stoichiometry N [1]: 2

VgrG1 from Pseudomonas protegens (natural protein)
stoichiometry N [2]: 3
